# Assay results as given in publication PMC6999906 (PLoS ONE, 2020).
# Legend:
# [1] = biological target: Mtb ThyX (thymidylate synthase ThyX) (Mycobacterium tuberculosis, UniProt P9WG57); assay: […]; also NADPH oxidase assay (IC50 about […]); assay type: biochemical
# [2] = tested on: O=c1ccn([C@H]2C[C@H](O)[C@@H](COP(=O)(O)O)O2)c(=O)[nH]1; assay: purified protein; conditions: FAD
# [3] = tested on: Nc1nc2c(c(=O)[nH]1)N1CN(c3ccc(C(=O)N[C@@H](CCC(=O)O)C(=O)O)cc3)C[C@H]1CN2; assay: purified protein; conditions: FAD
# [4] = tested on: NC(=O)C1=CN([C@@H]2O[C@H](COP(=O)(O)OP(=O)(O)OC[C@H]3O[C@@H](n4cnc5c(N)ncnc54)[C@H](OP(=O)(O)O)[C@@H]3O)[C@@H](O)[C@H]2O)C=CC1; assay: purified protein; conditions: FAD
# Mtb ThyX (thymidylate synthase ThyX), sequence (P9WG57 whole entry): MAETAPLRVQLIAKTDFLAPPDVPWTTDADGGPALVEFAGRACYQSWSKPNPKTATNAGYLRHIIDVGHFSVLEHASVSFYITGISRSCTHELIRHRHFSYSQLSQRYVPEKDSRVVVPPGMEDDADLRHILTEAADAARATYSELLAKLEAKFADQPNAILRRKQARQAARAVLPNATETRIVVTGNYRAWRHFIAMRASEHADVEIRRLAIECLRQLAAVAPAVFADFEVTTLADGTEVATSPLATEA
Compound,Ki [1],Km [2],Vmax [2],Km [3],Vmax [3],Km [4],Vmax [4]
"CC1=CC(=O)c2c(O)cccc2C1=O [plumbagin, 5-hydroxy-2-methyl-1,4-naphthoquinone]",8.21 µM,–,–,–,–,–,–
Mtb ThyX (thymidylate synthase ThyX) (Mycobacterium tuberculosis H37Rv),–,3.526 ± 0.68 µM,0.00695 µmol/min/mg,6.467 µM,0.00228 µmol/min/mg,35.22 µM,0.00323 µmol/min/mg
